Measured values: patent US20100261245

System: T1, VEGF, P15692-4
T1 sequence: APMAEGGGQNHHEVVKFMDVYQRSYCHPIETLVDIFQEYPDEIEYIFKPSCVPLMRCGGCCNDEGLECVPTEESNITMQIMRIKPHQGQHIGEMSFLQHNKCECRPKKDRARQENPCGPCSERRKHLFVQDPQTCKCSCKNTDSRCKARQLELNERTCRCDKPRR
Assay: SPR
Conditions: BIAcore 2000, VEGF immobilized, aptamer 30-500 nM

Row | Sequence | Kd (2'-OMe at all positions as printed, 5'-PEG 20 kDa (mPEG-SPA via 5' amine), PBS pH 7.4) [µM] | Kd (2'-OMe at all positions as printed (Am, Um, Gm, Cm), 5' terminal amine group stated for the PEGylation precursor, PBS pH 7.4 stated for the PEGylated aptamer) [µM]
1 | AUGCAGUUUGAGAAGUCGCGCAU [PEGylated anti-VEGF 2'-OMe-RNA aptamer] | 0.087 | 
2 | AUGCAGUUUGAGAAGUCGCGCAU [anti-VEGF 2'-OMe-RNA aptamer] |  | 0.00187
